Tests used:
[1] = target: T1, MLO-Y4 cell surface proteins (Mus musculus, UniProt Q9D3P1); assay: Crosslinking/co-immunoprecipitation/mass spectrometry (TMT quantitative proteomics) to identify irisin receptors; type: binding; conditions: co-precipitated protein Tchhl1 (TCHL1_MOUSE)
T1 construct: endogenous in cells; host or cells: MLO-Y4
T1 sequence (Q9D3P1 1-638): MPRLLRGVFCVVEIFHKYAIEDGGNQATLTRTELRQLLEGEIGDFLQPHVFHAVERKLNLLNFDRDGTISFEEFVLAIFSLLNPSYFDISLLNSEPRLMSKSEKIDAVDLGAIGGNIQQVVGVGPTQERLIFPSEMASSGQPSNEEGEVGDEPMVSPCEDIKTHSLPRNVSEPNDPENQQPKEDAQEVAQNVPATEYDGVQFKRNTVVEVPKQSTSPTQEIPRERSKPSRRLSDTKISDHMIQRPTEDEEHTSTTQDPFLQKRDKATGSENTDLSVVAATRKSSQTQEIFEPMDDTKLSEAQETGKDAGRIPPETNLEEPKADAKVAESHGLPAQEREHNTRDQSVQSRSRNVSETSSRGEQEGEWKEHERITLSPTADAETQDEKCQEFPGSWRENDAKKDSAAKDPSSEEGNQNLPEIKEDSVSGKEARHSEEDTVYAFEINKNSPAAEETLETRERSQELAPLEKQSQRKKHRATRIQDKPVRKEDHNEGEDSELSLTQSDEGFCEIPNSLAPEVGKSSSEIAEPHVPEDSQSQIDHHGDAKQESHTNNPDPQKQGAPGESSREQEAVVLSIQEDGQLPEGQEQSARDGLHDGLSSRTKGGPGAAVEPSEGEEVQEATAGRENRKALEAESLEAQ
Outline: (§1)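 Relative protein abundance came from 6-plex TMT MS3 quantitation on an Orbitrap Fusion Lumos, after in-gel trypsin digestion of Coomassie-stained SDS-PAGE lanes. Input was a Ni-NTA pulldown (250 mM imidazole elution) of lysates from murine MLO-Y4 cells. These cells were treated on ice with His-tagged irisin or adipsin (10 nM, 20 min) in serum-free medium, then crosslinked with 1.5 mM DTSSP for 30 min.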

[2] = target: T2, MLO-Y4 cell surface proteins (Mus musculus, UniProt P61161); assay: as above; type: binding; conditions: co-precipitated protein Actr2 (ARP2_MOUSE)
T2 construct: endogenous in cells; host or cells: MLO-Y4
Outline: as §1

Substance: adipsin
- TMT signal-to-noise ratio [1]: 1810.14
- TMT signal-to-noise ratio [2]: 153.626

— US20210063414A1, “METHODS FOR PREVENTING AND/OR TREATING BONE LOSS CONDITIONS BY MODULATING IRISIN” (Dana-Farber Cancer Institute, Inc., priority 2018, published 2021)
